Results reported in US20220403031A1 (WUXI BIOLOGICS IRELAND, published 2022).

What was measured:
[1] = molecular target: T1, mouse PD-L1 on 293F cells (W315-293F.mPro1.C1) (mouse, UniProt Q9EP73 19-290); assay: FACS competition: antibody titrated against 5 ug/mL mouse PD-1 ECD mFc on mouse PD-L1 293F cells
T1 construct: whole, on cells; also called cell surface mouse PD-L1; Mouse PD-L1-expressing 293F cell
Protocol: (§1) Mouse PD-L1 transfected W315-293F.mPro1.C1 cells were transferred into 96-well U-bottom plates at a density of 2×10⁵ cells/well. […] After washing with 1×PBS/1% BSA, the secondary antibody PE-labeled goat anti-mouse IgG was applied and incubated with cells at 4° C. for 1 hour. […] Human IgG1 and IgG4 isotype antibodies were used as negative control. The cells were then washed and resuspended in 1×PBS/1% BSA. MFI of the cells was measured by a flow cytometer (BD) and analyzed by FlowJo (version 7.6.1).

[2] = molecular target: T2, human PD-L1 on CHO-K1 cells (W315-CHO-K1.hPro1.C11) (human, UniProt Q9NZQ7 19-290); assay: FACS competition on human PD-L1 CHO-K1 cells: titrated W3156 antibody mixed with 0.5 ug/mL biotinylated BMK6.hIgG4 (m4), SA-PE [A]
T2 construct: whole, on cells; also called cell surface human PD-L1; Human PD-L1-expressing CHO-K1 cell
Protocol: (§2) Human PD-L1 expressing cells W315-CHO-K1.hPro1.C11 were transferred into 96-well U-bottom plates at a density of 1×10⁵ cells/well. […] Then the mixture was added to the cells in 96-well plates and incubated at 4° C. for 1 hour. After washing with 1×PBS/1% BSA, the secondary antibody SA-PE was applied and incubated with cells at 4° C. for 1 hour. The cells were then washed and resuspended in 1×PBS/1% BSA. MFI of the cells was measured by a flow cytometer and analyzed by FlowJo (version 7.6.1).

[3] = molecular target: T3, hPD-L2.ECD.His (SinoBiological-10292-H08H) (human, UniProt Q9BQ51 20-220); assay: ELISA on coated protein (1 ug/mL)
T3 construct: extracellular domain; His tag
T3 sequence (looked up): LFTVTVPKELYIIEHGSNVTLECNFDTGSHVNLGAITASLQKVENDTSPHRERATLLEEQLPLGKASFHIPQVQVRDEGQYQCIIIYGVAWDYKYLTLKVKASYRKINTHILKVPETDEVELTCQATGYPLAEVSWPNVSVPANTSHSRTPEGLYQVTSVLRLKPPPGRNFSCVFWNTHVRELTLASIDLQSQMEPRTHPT
Protocol: (§3) The plate was incubated at ambient temperature for 1 hour. The binding of the antibodies to the immobilized proteins was detected by HRP-labeled goat anti-human IgG antibody. The color was developed by dispensing 100 μL of TMB substrate, and then stopped by 100 μL of 2N HCl. The absorbance was read at 450 nm and 540 nm using a microplate spectrophotometer, respectively.

[4] = molecular target: T4, hCD80.ECD.His (SinoBiological-10698-H08H) (human, UniProt P33681 35-242); assay: ELISA on coated protein (1 ug/mL)
T4 construct: extracellular domain; His tag
T4 sequence (looked up): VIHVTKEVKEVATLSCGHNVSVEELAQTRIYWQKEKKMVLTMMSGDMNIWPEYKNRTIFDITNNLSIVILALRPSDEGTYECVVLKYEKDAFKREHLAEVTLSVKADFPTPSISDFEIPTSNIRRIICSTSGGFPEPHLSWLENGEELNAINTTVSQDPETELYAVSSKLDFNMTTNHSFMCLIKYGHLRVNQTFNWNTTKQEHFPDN
Protocol: as §3

[5] = molecular target: T5, hCD86.ECD.His (SinoBiological-10699-H08H) (human, UniProt P42081 24-247); assay: ELISA on coated protein (1 ug/mL)
T5 construct: extracellular domain; His tag
T5 sequence (looked up): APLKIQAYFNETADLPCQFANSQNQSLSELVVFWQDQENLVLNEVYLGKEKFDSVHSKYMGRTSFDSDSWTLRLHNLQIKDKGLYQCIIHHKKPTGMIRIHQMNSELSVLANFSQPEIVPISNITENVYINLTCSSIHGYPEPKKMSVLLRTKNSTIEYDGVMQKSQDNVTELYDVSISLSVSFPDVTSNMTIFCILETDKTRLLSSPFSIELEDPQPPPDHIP
Protocol: as §3

[6] = molecular target: T2, human PD-L1 on CHO-K1 cells …; assay: FACS competition: antibody titrated against 5 ug/mL human PD-1 ECD mFc on human PD-L1 CHO-K1 cells
Protocol: as §1, with “Human” for “Mouse”, “W315-CHO-K1.hPro1.C11” for “W315-293F.mPro1.C1”, “1×10⁵” for “2×10⁵”

[7] = molecular target: T1, mouse PD-L1 on 293F cells …; assay: FACS on mouse PD-L1 293F cells
Protocol: After washing with 1×PBS/1% BSA, the secondary antibody PE-labeled goat anti-human IgG was applied and incubated with cells at 4° C. for 1 hour. […] Human IgG1 and IgG4 isotype antibodies were used as negative control. The cells were then washed and resuspended in 1×PBS/1% BSA. MFI of the cells was measured by a flow cytometer (BD) and analyzed by FlowJo (version 7.6.1).

[8] = molecular target: T2, human PD-L1 on CHO-K1 cells …; assay: FACS competition on human PD-L1 CHO-K1 cells: titrated W3156 antibody mixed with 0.5 ug/mL biotinylated BMK8.hIgG4 (m5), SA-PE [A]
Protocol: as §2

T2 sequence (Q9NZQ7 19-290): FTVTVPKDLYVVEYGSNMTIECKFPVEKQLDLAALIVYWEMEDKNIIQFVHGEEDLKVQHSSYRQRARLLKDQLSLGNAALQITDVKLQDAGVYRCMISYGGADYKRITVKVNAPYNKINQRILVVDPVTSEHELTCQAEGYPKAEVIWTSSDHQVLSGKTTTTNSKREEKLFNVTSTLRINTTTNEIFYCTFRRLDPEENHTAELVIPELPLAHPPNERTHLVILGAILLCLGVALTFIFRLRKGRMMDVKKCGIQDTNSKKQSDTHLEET
T1 sequence (Q9EP73 19-290): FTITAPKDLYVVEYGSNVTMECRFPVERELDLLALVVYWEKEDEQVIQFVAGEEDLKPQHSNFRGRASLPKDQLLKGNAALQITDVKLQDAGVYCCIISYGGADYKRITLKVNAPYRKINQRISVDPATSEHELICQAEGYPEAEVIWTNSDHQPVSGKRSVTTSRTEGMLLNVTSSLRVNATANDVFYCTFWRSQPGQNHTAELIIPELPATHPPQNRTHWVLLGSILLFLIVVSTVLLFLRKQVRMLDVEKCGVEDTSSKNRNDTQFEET

IC50 [1]: 2.14 nM
IC50 (read off the curve) [2]: ~3 nM
binding result [3]: no binding (tested: 66.7 nM)
binding result [4]: no binding (tested: 66.7 nM)
binding result [5]: no binding (tested: 66.7 nM)
IC50 [6]: 0.871 nM
EC50 [7]: 1.24 nM
IC50 (read off the curve) [8]: ~3 nM
B1: AP3R2-1A3-z12-hIgG1 (Fc fusion)
chain: EVQLVESGGGLVQPGGSLRLSCAASGHFSNLAVNWFRQAPGKERELVAGILWSGGSTFYADSVKGRFTISRGNAENMLYLQMNSLRAEDTAVYYCNTGTNWGQGTLVTVSS
notes: VHH-Fc (hIgG1) fusion of the humanized VHH; also called W3156-AP3R2-1A3-z12-hIgG1; W3156 antibody; not shown: Fc of human IgG1
